Measurements as given in patent US20070160576A1, “IL-17A/F heterologous polypeptides and therapeutic uses thereof” (Genentech, Inc., priority 2001, published 2007).
Entries after “also recorded” stand apart in the source; their conditions may differ. Read-outs that look alike come from different tables or passages of the source.

B1: PRO1122 (IL-17C ligand) (ligand, UniProt Q9P0M4 19-197, looked up)
chain: HHDPSLRGHPHSHGTPHCYSAEELPLGQAPPHLLARGAKWGQALPVALVSSLEAASHRGRHERPSATTQCPVLRPEEVLEADTHQRSISPWRYRVDTDEDRYPQKLAFAECLCRGCIDARTGRETAALNSVRLLQSLLVLRRRPCSRDGSGLPTPGAFAFHTEFIHVPVGCTCVLPRSV
B2: IL-17F: human IL-17F ligand, SEQ ID NO:4 (protein, listed as Homo sapiens)
chain: MTVKTLHGPAMVKYLLLSILGLAFLSEAAARKIPKVGHTFFQKPESCPPVPGGSMKLDIGIINENQRVSMSRNIESRSTSPWNYTVTWDPNRYPSEVVQAQCRNLGCINAQGKEDISMNSVPIQQETLVVRRKHQGCSVSFQLEKVLVTVGCTCVTPVIHHVQ
B3: PRO21175 (IL-17D ligand) (ligand, UniProt Q8TAD2 16-202, looked up)
chain: AGAPRAGRRPARPRGCADRPEELLEQLYGRLAAGVLSAFHHTLQLGPREQARNASCPAGGRPADRRFRPPTNLRSVSPWAYRISYDPARYPRYLPEAYCLCRGCLTGLFGEEDVRFRSAPVYMPTVVLRRTPACAGGRSVYTEAYVTIPVGCTCVPEPEKDADSINSSIDKQGAKLLLGPNDAPAGP

Assays:
[1] = target: human IL-17 receptor (IL-17R, PRO1) (Homo sapiens, UniProt Q96F46); experiment: Receptor/ligand interaction screening assay (immunoadhesin); format: binding
Method: (§1) In general, the assay is performed as follows. A PRO polypeptide of the present invention suspected of being a ligand for a receptor is expressed as a fusion protein containing the Fc domain of human IgG (an immunoadhesin). Receptor-ligand binding is detected by allowing interaction of the immunoadhesin polypeptide with cells (e.g. Cos cells) expressing candidate PRO polypeptide receptors and visualization of bound immunoadhesin with fluorescent reagents directed toward the Fc fusion domain and examination by microscope. Cells expressing candidate receptors are produced by transient transfection, in parallel, of defined subsets of a library of cDNA expression vectors encoding PRO polypeptides that may function as receptor molecules. Cells are then incubated for 1 hour in the presence of the PRO polypeptide immunoadhesin being tested for possible receptor binding. The cells are then washed and fixed with paraformaldehyde. The cells are then incubated with fluorescent conjugated antibody directed against the Fc portion of the PRO polypeptide immunoadhesin (e.g. FITC conjugated goat anti-human-Fc antibody). The cells are then washed again and examined by microscope. A positive interaction is judged by the presence of fluorescent labeling of cells transfected with cDNA encoding a particular PRO polypeptide receptor or pool of receptors and an absence of similar fluorescent labeling of similarly prepared cells that have been transfected with other cDNA or pools of cDNA. If a defined pool of cDNA expression vectors is judged to be positive for interaction with a PRO polypeptide immunoadhesin, the individual cDNA species that comprise the pool are tested individually (the pool is “broken down”) to determine the specific cDNA that encodes a receptor able to interact with the PRO polypeptide immunoadhesin.
(§2) In another embodiment of this assay, an epitope-tagged potential ligand PRO polypeptide (e.g., 8 histidine “His” tag) is allowed to interact with a panel of potential receptor PRO polypeptide molecules that have been expressed as fusions with the Fc domain of human IgG (immunoadhesins). Following a 1 hour co-incubation with the epitope tagged PRO polypeptide, the candidate receptors are each immunoprecipitated with protein A beads and the beads are washed. Potential ligand interaction is determined by Western blot analysis of the immunoprecipitated complexes with antibody directed towards the epitope tag. An interaction is judged to occur if a band of the anticipated molecular weight of the epitope tagged protein is observed in the Western blot analysis with a candidate receptor, but is not observed to occur with the other members of the panel of potential receptors.

[2] = target: T1, PRO20040 (human IL-17RH2 receptor) (Homo sapiens, UniProt Q8NAC3); experiment: as above; format: binding
T1 sequence (Q8NAC3 21-791): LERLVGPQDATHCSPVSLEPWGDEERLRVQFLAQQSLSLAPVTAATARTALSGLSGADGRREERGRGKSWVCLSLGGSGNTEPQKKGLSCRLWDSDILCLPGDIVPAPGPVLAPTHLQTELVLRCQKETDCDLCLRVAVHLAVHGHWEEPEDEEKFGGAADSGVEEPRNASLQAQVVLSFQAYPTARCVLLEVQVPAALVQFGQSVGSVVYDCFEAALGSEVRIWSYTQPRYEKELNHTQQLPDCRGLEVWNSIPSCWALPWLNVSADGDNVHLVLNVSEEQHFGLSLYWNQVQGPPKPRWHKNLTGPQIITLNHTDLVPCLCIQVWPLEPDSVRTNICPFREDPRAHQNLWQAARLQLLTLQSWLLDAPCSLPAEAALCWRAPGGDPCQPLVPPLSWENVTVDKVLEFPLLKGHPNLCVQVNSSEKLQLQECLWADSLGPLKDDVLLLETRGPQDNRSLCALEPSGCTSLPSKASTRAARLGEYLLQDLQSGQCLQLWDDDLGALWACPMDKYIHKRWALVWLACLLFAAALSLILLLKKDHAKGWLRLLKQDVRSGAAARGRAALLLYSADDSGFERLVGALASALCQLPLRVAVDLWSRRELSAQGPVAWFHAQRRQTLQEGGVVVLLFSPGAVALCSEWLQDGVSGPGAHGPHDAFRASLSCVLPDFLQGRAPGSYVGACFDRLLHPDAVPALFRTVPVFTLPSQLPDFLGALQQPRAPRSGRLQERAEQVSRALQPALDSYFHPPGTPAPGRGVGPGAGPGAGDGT
Method: as §1, §2

[3] = target: T2, PRO20040 (human IL-17RH2 receptor) (human, UniProt Q8NAC3-3 21-452); experiment: receptor/ligand screen, FIG. 14
T2 sequence (looked up): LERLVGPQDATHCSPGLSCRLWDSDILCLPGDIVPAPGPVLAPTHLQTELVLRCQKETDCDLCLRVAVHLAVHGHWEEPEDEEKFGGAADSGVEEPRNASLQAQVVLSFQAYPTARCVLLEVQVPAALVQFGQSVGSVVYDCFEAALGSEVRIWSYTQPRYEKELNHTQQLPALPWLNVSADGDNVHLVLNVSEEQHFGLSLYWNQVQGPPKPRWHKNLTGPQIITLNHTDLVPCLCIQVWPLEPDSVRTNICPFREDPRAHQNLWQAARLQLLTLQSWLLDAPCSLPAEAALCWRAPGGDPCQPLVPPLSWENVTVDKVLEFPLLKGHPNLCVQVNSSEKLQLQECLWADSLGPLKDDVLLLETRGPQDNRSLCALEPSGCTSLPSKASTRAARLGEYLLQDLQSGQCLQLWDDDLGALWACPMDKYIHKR
Text: A PRO polypeptide of the present invention suspected of being a ligand for a receptor is expressed as a fusion protein containing the Fc domain of human IgG (an immunoadhesin). Receptor-ligand binding is detected by allowing interaction of the immunoadhesin polypeptide with cells (e.g. Cos cells) expressing candidate PRO polypeptide receptors and visualization of bound immunoadhesin with fluorescent reagents directed toward the Fc fusion domain and examination by microscope. Cells expressing candidate receptors are produced by transient transfection, in parallel, of defined subsets of a library of cDNA expression vectors encoding PRO polypeptides that may function as receptor molecules. Cells are then incubated for 1 hour in the presence of the PRO polypeptide immunoadhesin being tested for possible receptor binding. The cells are then washed and fixed with paraformaldehyde. The cells are then incubated with fluorescent conjugated antibody directed against the Fc portion of the PRO polypeptide immunoadhesin (e.g. FITC conjugated goat anti-human-Fc antibody). The cells are then washed again and examined by microscope. A positive interaction is judged by the presence of fluorescent labeling of cells transfected with cDNA encoding a particular PRO polypeptide receptor or pool of receptors and an absence of similar fluorescent labeling of similarly prepared cells that have been transfected with other cDNA or pools of cDNA. If a defined pool of cDNA expression vectors is judged to be positive for interaction with a PRO polypeptide immunoadhesin, the individual cDNA species that comprise the pool are tested individually (the pool is “broken down”) to determine the specific cDNA that encodes a receptor able to interact with the PRO polypeptide immunoadhesin.
In another embodiment of this assay, an epitope-tagged potential ligand PRO polypeptide (e.g., 8 histidine “His” tag) is allowed to interact with a panel of potential receptor PRO polypeptide molecules that have been expressed as fusions with the Fc domain of human IgG (immunoadhesins). Following a 1 hour co-incubation with the epitope tagged PRO polypeptide, the candidate receptors are each immunoprecipitated with protein A beads and the beads are washed. Potential ligand interaction is determined by Western blot analysis of the immunoprecipitated complexes with antibody directed towards the epitope tag.

Molecule | binding to human IL-17 receptor (IL-17R, PRO1) [1] | binding to human IL-17 receptor (IL-17R, PRO1) ([1]; listed as PRO1122) | binding to IL-17RH2 receptor (PRO20040) [2] | binding result [3] | binding to IL-17RH2 receptor (PRO20040) ([2]; listed as PRO20110)
B1 | do not interact | do not bind | do not interact | no binding | 
B2 | binds to |  | has been shown to bind; also recorded: binds to |  | binds to
B3 | do not interact |  | do not interact | no binding | 
